In publication PMC7538557:

Target: recombinant SSA (streptococcal superantigen SSA of S. pyogenes HKU16, without the predicted signal peptide) (S. pyogenes HKU16)

Substance: recombinant SSA (streptococcal superantigen SSA of S. pyogenes HKU16, without the predicted signal peptide) (natural protein)
- stoichiometry N: 2
